Target: human CD81 on Hep3B hepatoma cells (human) (UniProt P60033)
Experiment: cell-based or functional assay

Chain of UniProt P60033 (P60033 whole entry): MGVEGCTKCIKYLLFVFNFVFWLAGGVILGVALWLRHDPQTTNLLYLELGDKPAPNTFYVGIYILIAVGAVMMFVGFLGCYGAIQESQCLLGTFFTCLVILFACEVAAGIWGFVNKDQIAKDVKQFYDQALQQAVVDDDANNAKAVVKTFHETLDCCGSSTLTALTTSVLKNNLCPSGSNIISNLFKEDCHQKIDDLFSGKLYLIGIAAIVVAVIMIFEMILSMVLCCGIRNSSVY

Substance: mouse anti-human CD81 monoclonal antibody, clone 1.3.3.22 (Santa Cruz Biotechnology)
- fold decrease in infectivity of Bole1a HCVpp on Hep3B cells (luciferase RLU): 10 fold

From patent US20170043011A1
